Laboratory results published in a protein production outcome set (Wang et al. 2014).

Assay: label from the status in PepcDB records

Sequence	protein production
MTVITLVLGMLLPAVVSILMLMASTQSRISEEENMMRAGLVEGMGLQVDEVVDALAQSLEVIAANGGADADDATRWTRLLQASRAFGKQFLEFHVANPNGDVISSSASLPEGINVADRAYFSTSLATEGMVASEGLVSRHTGQIALYFALAVRSDEEAHSGVVFAGFNGEVFGDMLRKAGPRSDGLTVFVLDRNGDSVYEHLPSGGRHPVHIPPADLRDCADGRRAWLEFGGTRHAVSVMAKRLATGEAPYLYLLVSTPDESFFSLSTLRGVTPLLLGTLCVALAALAAANRRIVHPLESLTRKVQAIEAGQPLPETAMESVREIGGLQTAVTRMAQAISQREQELAWFATHDDLTGLANRKALHEMLAARLDRLEEGASETVAVIFIDIDRFKAINDSMGHTWGDNVIAAFAARLGAFMHPLHAFCARVGGDEFVVVPDASATHNVVRDTRALLAHLGTPYDINGREVRLSASAGVLFVGDPGESPDVIIRNANAAMHRSKERGFGRISIFRPLHLDSYMLRLDIERELPLAAATGQLHMVYQPIVNASDGSLHSFEALMRWNHPRHGSLSPATFITVAEQTGHVGLLGDFALREAGACVRRFGEAGLLTPGLRFGVNISPAHLMAQDFLSDIESVLDAVSVPGDRITLEVTESALISTGAELMGRLETLAKRGLNFAIDDYGAGYSNIQYLASEHFRVIKIDKSLIDEVHLRDRMRAIVRSTVQLAHSLGCKIVAEGVETHAQANLLARLGCDYLQGYLFSRPVPETDAMRLAIRAMDQGTLLPPEAHPDA	failed
MTVKAMALNTNQLFAYLNRGDIAEFKFSPLFTTLFFPNVATFSTQNIMLDTLDIEEVTMSAFCSPMVGSQVQRDKGYETSTIKPGYMKPKHEIDPTKTIMRMAGEDPAQLNDPTYRRMRLITGNMRRQINAIKARVEWLAVNAVTTGKNIIEGEGIERYEIDWKIPEKNIIEQADGKKWSEQDKETHYPIYDIELYADQAGCPANVMIMGAEVWRTLRSFKKFRELYDLSRGSESAAELACKNLGEVVSFKGYLGDLALIVYSGKYTDSDGTEKYFLEPDLLVLGNTNNKGLVAYGAIMDQEAVRTGATQNMFYPKNWIEDGDPAIEYVQTHSAPQPVPADIRKFVTVKIA	not failed
MTVLYKGSLKQNNDPFHVTLLSKEHIEQILFLQNVVVEGLEDKSRLQPLSQEEFQYILEGNGMMIGAFIKNELIAFRALLVPPIDDEHLGLDIGLPESELHRVIYQEISNVHPNCRGNGMQKILATVIMDELQKENGKYDYVCCTVAPFNIPSLKDKFSQGMEIAALKEKYGGSMRYVFVKELREDKEKDWTEIKSVPMNNAGGQQALLSEGYRGYEMEKVDEDFVVKFGR	failed
MTVNVENVEPELNIEIGPNWFASVMGTGIIANAAVGLPMVGQYLGQAGLVIWVIASLMLIVMLLLKAVQTITNPHIIKRQFNDPVMAQFFGAPPMALLTIAGGTLLFGHHFFAQDTLMVIAWSLWITGTIVGMMTAVIIPYRLFTHHEVRGDAAFGGWLMPVVPPMVSAAIGAMFIPHVQDTLLQQTLLYACYAMFGTSLIAAMIILTLIWGRLVHSGTSGGARVPTLWLVLGPLGQSITAAGALGAVALAVVEQPIAGSLNTMAILYGVPVWGFAFYWSILASFLTLRALRRKMPFALTWWAFTFPVGTCVTGTTQLALHTGLPAFEWAAVILFAGLLCAWVIAALGTIKGIKTGHIMKNPVSSPVIIAKKGPR	failed
MTVRVCKMDGEVMPVVVVQNATVLDLKKAIQRYVQLKQEREGGVQHISWSYVWRTYHLTSAGEKLTEDRKKLRDYGIRNRDEVSFIKKLGQK	not failed
MTVTATSVDEPEQLEPQAAPASRGARRVRRLVPAAAATLSGVLLYVSFPPRTLWWLALPAFAVLGWALRDRTWKAGLGLGYLFGLGFLLPLLVWTGVEVGPGPWLALAVVEAVFVALVGAGIAMVSRLPAWPLWAAALWIAGEAARARAPFGGFPWGKIAFGQADGVFLPLAAAGGTPVLGFAVVLCGFGLYEIVRQVVDGRRTGVVRRGAAAVALLSVAVPVVGALAARSLVSDKAEDGTATVAVIQGNVPRSGLEFNAQRRAVLDHHARETERLAAKIKAGKVAQPDFVLWPENSSDIDPFTNPDARAVIDSAAKAVGVPISVGGVVERDGKLYNEQILWDPAKGALDTYDKRQVQPFGEYLPLRSLLGAINKNWTSMVRQDFSRGTEPGVFTMAGTKVGLATCYEAAFDWAVRDNITHGAQIISVPSNNATFDRSEMTYQQLAMSRVRAVEHSRTVTVPVTSGVSAVIMPDGKITQKTGMFVADSLVQKVPLRSSQTPATRLGILPEMVLVLVAAGGLGWSVAAVVRGRRNDALQG	failed
MTVWRSWRLLGVSGDSKPTDGPVSRFLNRRIASAIASAIIALNLPLTPNMLSLISFLTAAAAALFIAGGQLLVGGLLVQLSSVLDGVDGIVARRLRAASKAGGFLDTMLDRYADTVIYLALAYAAVATHGLETWAVLTAVLAVSGDIMVSYLHTRGERDAGVHPSLVGPLDSLASRDVRLLIVAVITAAGRPLEAMAAVALLSHAYVAVKSIYLFSLLKSKGV	failed
MTWKPNVTVAAVIEQDDKYLLVEEIPRGTAIKLNQPAGHLEPGESIIQACSREVLEETGHSFLPEVLTGIYHWTCASNGTTYLRFTFSGQVVSFDPDRKLDTGIVRAAWFSIDEIRAKQAMHRTPLVMQCIEDYHAGKRYPLDILQYYD	not failed
MTWLPFIIIIPLFGAFSMPIVSLLKGKAKEIWATIISFTTLMVGIQVFREVWNRGTIVYALGSETPFGKANFPIRIVWEVDKFGAIMVLIITLVSFLAVLYSIEYMKHDTGLEKYYTLILILELGMLGIAITGDIFNFYVFLEIMSIASYALVAFRNDTWEAIEAGIKYMFVGSLASSLVLLGIALLYGQYGTLTMGYLAVKMSENPTIVAKIALSLFLGGLLFKSGASPVHMWLADAHPAAPSSISAMLSGLVIKVGGIYAIARVVFSIFLPAINLATVGWLVIIFACITLIVGNAMAVVQEDMKRLLAYSSVGQIGYILLGLGIGMVAYGSKIGELALAGAIYHIVNHAMMKALLFLVAGAVLHELGTRNLNELSGLAKTMPKTTFAFLIGAAAIVGMPPLNGFASKWLIYESSALFNPIIGSIAIIGTAFCTAAYVRVLFTFFGRPNEKVMRAKDPGALMLIPMFILVIAIILMGIFPWQISDKIMIPAARNLWDITSYVMTLMGGG	failed
MTYEAGCGLIKALEDPDNRVRQRAVKTLGKRGNPDVLEDLMEALKDSRQPVQEAASEALRKIIAASDSVPVLVKALDATDRNVRKAAIEALWKAGTPEAIPPLLRELDDADWYLRSRAADALADIASPEAALGLIKVMDIHDSPVKKIIVNALGKIGTVEAVEGLVKALEDLEHHHHHH	failed
MTYFASDFQDLDNSGNIENFIRCLELQQSLDLYKYYKQKTFEKMQLKPGDSVLEVGCGTGNDALLLANYVGETGKVTAVDRSQFMLDQARERAKNSTTKFEFVLADAEQLPFPGANFTAARVDRTLQHIAQPQKAIAEMARVVQSNGWVVAFEPDWETLVIDSDQRGVTRAITNFWCDNFPSGWVGRYLFKYFRQAGLTDIAVDPITICLTEFELADKILDLSRTVEKISEQGTISQNDLTLWFKAIDQNDQAGEFFCAFTAFLVRGRKP	failed
MTYKITTSESKKEYLYMGSGDTRGESSLVAKPIEIILNKLPHAILAQQQFQKYITSPIYRYLSKLLLFREVAWPESTKDTQKGQVGIFSFQNNYADSATTFRILAHLDEHGYPLPNGAAEKNLPSLFEGFKATVSIIQQRLLLDNVDGATNSDKEKYVQLPDINTGFVNKTYSRIDLTHLLEDVETNVENLSINKTLEMDELTRLDSMINELESRKLKILERVKHIDSKSTNLENDVTLIKDRINFIEEYNLEADREQSLRKQMEEERSSEASSFTQNEEAISSLCDVESKDTRLKDFYKMPHEKSHDKNRQIISETYSRNTTAFRMTIPHGEHGNSITALDFDTPWGTLCSSSYQDRIVKVWDLNHGIQVGELPGHLATVNCMQIDKKNYNMLITGSKDATLKLWDLNLSREIYLDHSPLKEKTEEIVTPCIHNFELHKDEITALSFDSEALVSGSRDKKIFHWDLTTGKCIQQLDLIFTPTHSDIKMPARSLNNGACLLGTEAPMIGALQCYNSALATGTKDGIVRLWDLRVGKPVRLLEGHTDGITSLKFDSEKLVTGSMDNSVRIWDLRTSSILDVIAYDLPVSSLDFDGKLITVGANEGGVNVFNMERDEHWMTPEPPHSLDGDELSRRIAIVKYKDGFLINGHNDGDINVWTL	failed
MTYLVTGATGGLGGYALNYLKELVPMSDIYALVRSKEKGADLKAAGFNIRVGDYSDAESMKQAFAGIDRVLFVSGAPGNRQVEHENVINAAKKAGVSYIAYTSFAGADKSTSALAEDHFFTEKVIEKSGIAHTFLRNNWYFENEMPMIGGALSAGKFVYAAENGKVGWALKREYAEVAAKAVAGAGFPEILELSGPLMTYEELTKALKEATGKDFDVISSDDKGFVENLVSVGLPQPVAEMFLSFQHDIKNDQLDVTSDDFEKALGKPLTNRVDALRELLKLEHHHHHH	not failed
MTYLVTGATGGLGGYALNYLKELVPMTDIYALVRSEEKGADLKAAGFNIRIGDYSDAESMKQAFAGIDRVLFVSGAPGNRQVEHENVVNTAKEAGVSYIAYTSFADADNSTSALAADHIFTEKVIEKSGIEHTFLRNNWYFENEMPMIGGALNGGKFVYAAGNGKTGWALKREYAEVAAKAVAGARFPEILELSGPVMTYAELTEALKEATGKDFEVISSDDKGFVENLVNVGMPQPVAEMFLSFQHDIKNNQLDVTSGDFEKALGKPLTNRVDALRELLQ	failed
MVADKSKKSKIEEKGEEENLEQIDAELVLSIEKLQEIQDDLEKINEKASDEVLEVEQKYNVIRKPVYDKRNEVIQSIPGFWMTAFLSHPALGDLLTEEDQKIFKYLNSLEVEDAKDVKSGYSITFHFTSNPFFEDAKLTKTFTFLEEGTTKITATPIKWKEGKGLPNGVNHDDKKGNKRALPEESFFTWFTDAQHKEDAGDEIHDEVADIIKEDLWSNPLTYFNNDADEEDFDGDDDGDEEGEEDDDDEEEEDGEE	failed
MVAKQLSIFLENKSGRLTEVTEVLAKENINLSALCIAENADFGILRGIVSDPDKAYKALKDNHFAVNITDVVGISCPNVPGALAKVLGFLSAEGVFIEYMYSFANNNVANVVIRPSNMDKCIEVLKEKKVDLLAASDLYKL	not failed
MVAQLPEPIKIVRRAGDVRIHTFISAFTDDNIANATHIIEGRNKLVLVDGQFLVPYALQFRAYADSLGKEIDRIYLSHRHPDHWFGLGAAFSDIPIHALSETKEFLRQHGQDSLNDHWKLGNLAPKTLVIPEKTVRAGHEIIDGVKYVFDEVVDTEIDFLLTIGLPDVGVFIAQDLIYSGTHLYLTKYMEHWIGVLQGMLLSDYELFLPGHGFPADKNEVAKNIEYLSVAIEAAGHGLTNDAFKRFLLERFPERKCPGIFDIYIPRLFDNASEF	failed
MVAVENVVFVFVAGLLTALATGLGAIPFFLVDEFSDRWNVLLWGLASGIMVAASLFGLVREGLAYGSPVLLVPGVLAGVGLVAVAHELLDDFDQSPKQFEQADFTKLLLILGILTVHSFPEGVAVGVSFAELGLEAATPESAVGIVGVSVPLLAVFMTVAISIHNIPEGTAIAIPLRSLGVSEWKMVWWAVFSSLPQPVGAVIAYYFVTLAKAFLPFGFGFAAGAMVYLVLTEFVPEALEYGDGLPGGGKRELLTGIAVGVLAMVPLAFV	failed
